Measured values: paper PMC10444775 (Scientific Reports, 2023)

Key:
Conditions in all cases: both partners purified
[1] = target: SARS-CoV-2 RBD domain (used for HDX-MS of 7A9) (SARS-CoV-2, reference strain …); assay: HDX-MS
[2] = target: CoV-2-S-RBD-SD1 spike construct (SARS-CoV-2, UniProt P0DTC2); assay: ELISA
[3] = target: CoV-2-S-RBD construct used for x-ray crystallography (SARS-CoV-2, UniProt P0DTC2); assay: crystal structure

Measured: binding result

B1: 7A9 VHH (VHH)
VHH: QVQLVESGGGLVQAGGSLRLSCSASGGTASRSAMGWFRQAPGKEREFVAGISRRNSGSTYVADSYEDSVKGRFTISRDNAKNTIYLQMNSLKPEDTAVYYCAAEPTLGWYVPRRSVEYEYWGQGTQVTVSS
binds: all assays above
